One data set addresses T1, OATP4C1 (Homo sapiens, UniProt Q6ZQN7).
T1 construct: gene SLCO4C1
T1 sequence (Q6ZQN7 1-724): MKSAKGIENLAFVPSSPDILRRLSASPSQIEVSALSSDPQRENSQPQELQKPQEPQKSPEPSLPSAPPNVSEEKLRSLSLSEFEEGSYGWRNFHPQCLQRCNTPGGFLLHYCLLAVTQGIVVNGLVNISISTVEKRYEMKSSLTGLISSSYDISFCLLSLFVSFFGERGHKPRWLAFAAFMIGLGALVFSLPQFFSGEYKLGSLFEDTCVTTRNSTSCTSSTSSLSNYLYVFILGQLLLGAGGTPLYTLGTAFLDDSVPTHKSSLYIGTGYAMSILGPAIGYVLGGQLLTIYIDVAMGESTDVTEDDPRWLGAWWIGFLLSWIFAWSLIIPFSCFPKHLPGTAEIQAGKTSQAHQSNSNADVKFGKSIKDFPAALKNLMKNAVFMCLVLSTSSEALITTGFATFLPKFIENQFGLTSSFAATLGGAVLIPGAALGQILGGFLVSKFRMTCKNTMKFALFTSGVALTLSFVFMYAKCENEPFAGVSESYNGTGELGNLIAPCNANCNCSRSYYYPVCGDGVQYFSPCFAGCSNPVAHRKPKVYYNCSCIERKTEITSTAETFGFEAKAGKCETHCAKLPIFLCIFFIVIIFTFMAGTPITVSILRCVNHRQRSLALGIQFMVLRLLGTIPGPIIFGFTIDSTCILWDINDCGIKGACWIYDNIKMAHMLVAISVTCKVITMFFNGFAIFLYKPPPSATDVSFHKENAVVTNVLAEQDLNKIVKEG
The experiment in a line: inhibition of OATP4C1-mediated L-homoarginine ([…]) net uptake in HEK cells. The format is cell-based.

Substrate in data set [1]: CN(C)C(=N)NCCC[C@H](N)C(=O)O
The experiment in a line: radiolabeled uptake and efflux in HEK-OATP4C1 vs vector control cells (Km); also inhibits L-homoarginine uptake. The format is cell-based, Homo sapiens.

Substrate in data set [2]: N=C(N)NCCCC[C@H](N)C(=O)O
Nature of the data set: radiolabeled uptake and efflux in HEK-OATP4C1 vs vector control cells (Km). The format is cell-based, Homo sapiens.

Substrate in data set [3]: N=C(N)NCCC[C@H](N)C(=O)O
The experiment in a line: radiolabeled uptake in HEK-OATP4C1 vs vector control cells (Km). Format: cell-based, Homo sapiens.

Usually IC50 stands for the point on the concentration scale where inhibition reaches its midpoint. A low value points to higher potency. In turn, `CN=C(NC)NCCC[C@H](N)C(=O)O` [SDMA] returned an IC50 against OATP4C1 of 54 ± 1.3 µM.

B1: OATP4C1 (Homo sapiens) (protein)
chain: MKSAKGIENLAFVPSSPDILRRLSASPSQIEVSALSSDPQRENSQPQELQKPQEPQKSPEPSLPSAPPNVSEEKLRSLSLSEFEEGSYGWRNFHPQCLQRCNTPGGFLLHYCLLAVTQGIVVNGLVNISISTVEKRYEMKSSLTGLISSSYDISFCLLSLFVSFFGERGHKPRWLAFAAFMIGLGALVFSLPQFFSGEYKLGSLFEDTCVTTRNSTSCTSSTSSLSNYLYVFILGQLLLGAGGTPLYTLGTAFLDDSVPTHKSSLYIGTGYAMSILGPAIGYVLGGQLLTIYIDVAMGESTDVTEDDPRWLGAWWIGFLLSWIFAWSLIIPFSCFPKHLPGTAEIQAGKTSQAHQSNSNADVKFGKSIKDFPAALKNLMKNAVFMCLVLSTSSEALITTGFATFLPKFIENQFGLTSSFAATLGGAVLIPGAALGQILGGFLVSKFRMTCKNTMKFALFTSGVALTLSFVFMYAKCENEPFAGVSESYNGTGELGNLIAPCNANCNCSRSYYYPVCGDGVQYFSPCFAGCSNPVAHRKPKVYYNCSCIERKTEITSTAETFGFEAKAGKCETHCAKLPIFLCIFFIVIIFTFMAGTPITVSILRCVNHRQRSLALGIQFMVLRLLGTIPGPIIFGFTIDSTCILWDINDCGIKGACWIYDNIKMAHMLVAISVTCKVITMFFNGFAIFLYKPPPSATDVSFHKENAVVTNVLAEQDLNKIVKEG
As usually defined, the Km is the substrate concentration at which the rate is half of its maximum. Consider B1, for which the figures for the Km in data set [1], in data set [2] and in data set [3] were 232.1 ± 78.9 µM, 49.9 ± 9.6 µM and 48.1 ± 5.7 µM, respectively.

Values taken from article PMC6415861, “The renal transport protein OATP4C1 mediates uptake of the uremic toxin asymmetric dimethylarginine (ADMA) and efflux of cardioprotective L-homoarginine” (PLoS ONE, 2019).
